Laboratory results from US20210032299A1 (Eli Lilly, published 2021).
Where a chain is given by its changes, count along the chain named. Starred links: 1 amine or outer side, 2 acyl side, 3 side chain; linkers in the order of their positions; H or OH if unused. Non-standard residues stand in square brackets, D forms with d. Groups on a side chain read outwards from the residue. No end group written: not given here. *: point of attachment. C20 diacid = O=C(O)CCCCCCCCCCCCCCCCCCC(=O)*; γGlu = O=C(O)[C@H](CCC(=O)[*:2])N[*:1]; 4Pal = N[C@@H](Cc1ccncc1)C(=O)O; αMeL = CC(C)C[C@](C)(N)C(=O)O; AEEA = NCCOCCOCC(=O)O; Aib = CC(C)(N)C(=O)O

T1: human glucose-dependent insulinotropic peptide receptor (human, UniProt P48546 22-466)
T1 sequence (looked up): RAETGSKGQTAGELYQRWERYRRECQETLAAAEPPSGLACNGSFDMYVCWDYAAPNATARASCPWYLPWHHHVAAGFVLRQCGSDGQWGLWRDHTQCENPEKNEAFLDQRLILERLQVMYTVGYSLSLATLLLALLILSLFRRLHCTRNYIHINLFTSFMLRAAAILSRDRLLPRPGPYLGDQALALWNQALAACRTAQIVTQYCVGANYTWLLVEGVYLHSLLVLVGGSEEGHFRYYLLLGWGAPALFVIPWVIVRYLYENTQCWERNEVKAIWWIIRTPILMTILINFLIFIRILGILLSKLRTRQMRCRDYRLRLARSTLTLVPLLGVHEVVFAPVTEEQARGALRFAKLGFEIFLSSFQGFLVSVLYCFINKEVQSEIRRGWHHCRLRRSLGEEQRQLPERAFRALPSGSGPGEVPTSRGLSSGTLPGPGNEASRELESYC

B1: Example 3 (peptide)
peptide: Y[Aib]EGTFISDYSI[αMeL]LDKK([AEEA-AEEA-γGlu-C20 diacid])HQ[Aib]DFVE[4Pal]LLEAGPSSGAPPPS-NH2
modifications: N-terminus assumed
SMILES: CC[C@H](C)[C@H](NC(=O)[C@H](Cc1ccccc1)NC(=O)[C@@H](NC(=O)CNC(=O)[C@H](CCC(=O)O)NC(=O)C(C)(C)NC(=O)[C@@H](N)Cc1ccc(O)cc1)[C@@H](C)O)C(=O)N[C@@H](CO)C(=O)N[C@@H](CC(=O)O)C(=O)N[C@@H](Cc1ccc(O)cc1)C(=O)N[C@@H](CO)C(=O)N[C@H](C(=O)N[C@@](C)(CC(C)C)C(=O)N[C@@H](CC(C)C)C(=O)N[C@@H](CC(=O)O)C(=O)N[C@@H](CCCCN)C(=O)N[C@@H](CCCCNC(=O)COCCOCCNC(=O)COCCOCCNC(=O)CC[C@H](NC(=O)CCCCCCCCCCCCCCCCCCC(=O)O)C(=O)O)C(=O)N[C@@H](Cc1c[nH]cn1)C(=O)N[C@@H](CCC(N)=O)C(=O)NC(C)(C)C(=O)N[C@@H](CC(=O)O)C(=O)N[C@@H](Cc1ccccc1)C(=O)N[C@H](C(=O)N[C@@H](CCC(=O)O)C(=O)N[C@@H](Cc1ccncc1)C(=O)N[C@@H](CC(C)C)C(=O)N[C@@H](CC(C)C)C(=O)N[C@@H](CCC(=O)O)C(=O)N[C@@H](C)C(=O)NCC(=O)N1CCC[C@H]1C(=O)N[C@@H](CO)C(=O)N[C@@H](CO)C(=O)NCC(=O)N[C@@H](C)C(=O)N1CCC[C@H]1C(=O)N1CCC[C@H]1C(=O)N1CCC[C@H]1C(=O)N[C@@H](CO)C(N)=O)C(C)C)[C@@H](C)CC
B2: Example 10 (peptide)
peptide: Y[dA]EGTFISDYSILLDKK([AEEA-AEEA-γGlu-C20 diacid])HQQDFVNWLLAGGPSSGAPPPS-NH2
modifications: N-terminus assumed
SMILES: CC[C@H](C)[C@H](NC(=O)[C@H](CO)NC(=O)[C@H](Cc1ccc(O)cc1)NC(=O)[C@H](CC(=O)O)NC(=O)[C@H](CO)NC(=O)[C@@H](NC(=O)[C@H](Cc1ccccc1)NC(=O)[C@@H](NC(=O)CNC(=O)[C@H](CCC(=O)O)NC(=O)[C@@H](C)NC(=O)[C@@H](N)Cc1ccc(O)cc1)[C@@H](C)O)[C@@H](C)CC)C(=O)N[C@@H](CC(C)C)C(=O)N[C@@H](CC(C)C)C(=O)N[C@@H](CC(=O)O)C(=O)N[C@@H](CCCCN)C(=O)N[C@@H](CCCCNC(=O)COCCOCCNC(=O)COCCOCCNC(=O)CC[C@H](NC(=O)CCCCCCCCCCCCCCCCCCC(=O)O)C(=O)O)C(=O)N[C@@H](Cc1c[nH]cn1)C(=O)N[C@@H](CCC(N)=O)C(=O)N[C@@H](CCC(N)=O)C(=O)N[C@@H](CC(=O)O)C(=O)N[C@@H](Cc1ccccc1)C(=O)N[C@H](C(=O)N[C@@H](CC(N)=O)C(=O)N[C@@H](Cc1c[nH]c2ccccc12)C(=O)N[C@@H](CC(C)C)C(=O)N[C@@H](CC(C)C)C(=O)N[C@@H](C)C(=O)NCC(=O)NCC(=O)N1CCC[C@H]1C(=O)N[C@@H](CO)C(=O)N[C@@H](CO)C(=O)NCC(=O)N[C@@H](C)C(=O)N1CCC[C@H]1C(=O)N1CCC[C@H]1C(=O)N1CCC[C@H]1C(=O)N[C@@H](CO)C(N)=O)C(C)C
B3: Example 12 (peptide)
peptide: Y[dA]EGTFISDYSILLDKK([AEEA-AEEA-γGlu-C20 diacid])AQQDFVNWLLAGGPSSGAPPPS-NH2
modifications: N-terminus assumed
SMILES: CC[C@H](C)[C@H](NC(=O)[C@H](CO)NC(=O)[C@H](Cc1ccc(O)cc1)NC(=O)[C@H](CC(=O)O)NC(=O)[C@H](CO)NC(=O)[C@@H](NC(=O)[C@H](Cc1ccccc1)NC(=O)[C@@H](NC(=O)CNC(=O)[C@H](CCC(=O)O)NC(=O)[C@@H](C)NC(=O)[C@@H](N)Cc1ccc(O)cc1)[C@@H](C)O)[C@@H](C)CC)C(=O)N[C@@H](CC(C)C)C(=O)N[C@@H](CC(C)C)C(=O)N[C@@H](CC(=O)O)C(=O)N[C@@H](CCCCN)C(=O)N[C@@H](CCCCNC(=O)COCCOCCNC(=O)COCCOCCNC(=O)CC[C@H](NC(=O)CCCCCCCCCCCCCCCCCCC(=O)O)C(=O)O)C(=O)N[C@@H](C)C(=O)N[C@@H](CCC(N)=O)C(=O)N[C@@H](CCC(N)=O)C(=O)N[C@@H](CC(=O)O)C(=O)N[C@@H](Cc1ccccc1)C(=O)N[C@H](C(=O)N[C@@H](CC(N)=O)C(=O)N[C@@H](Cc1c[nH]c2ccccc12)C(=O)N[C@@H](CC(C)C)C(=O)N[C@@H](CC(C)C)C(=O)N[C@@H](C)C(=O)NCC(=O)NCC(=O)N1CCC[C@H]1C(=O)N[C@@H](CO)C(=O)N[C@@H](CO)C(=O)NCC(=O)N[C@@H](C)C(=O)N1CCC[C@H]1C(=O)N1CCC[C@H]1C(=O)N1CCC[C@H]1C(=O)N[C@@H](CO)C(N)=O)C(C)C
B4: Example 8 (peptide)
peptide: Y[Aib]EGTFISDYSILLDKK([AEEA-AEEA-γGlu-C20 diacid])AQ[Aib]DFVNWLLAQGPSSGAPPPS-NH2
modifications: N-terminus assumed
SMILES: CC[C@H](C)[C@H](NC(=O)[C@H](CO)NC(=O)[C@H](Cc1ccc(O)cc1)NC(=O)[C@H](CC(=O)O)NC(=O)[C@H](CO)NC(=O)[C@@H](NC(=O)[C@H](Cc1ccccc1)NC(=O)[C@@H](NC(=O)CNC(=O)[C@H](CCC(=O)O)NC(=O)C(C)(C)NC(=O)[C@@H](N)Cc1ccc(O)cc1)[C@@H](C)O)[C@@H](C)CC)C(=O)N[C@@H](CC(C)C)C(=O)N[C@@H](CC(C)C)C(=O)N[C@@H](CC(=O)O)C(=O)N[C@@H](CCCCN)C(=O)N[C@@H](CCCCNC(=O)COCCOCCNC(=O)COCCOCCNC(=O)CC[C@H](NC(=O)CCCCCCCCCCCCCCCCCCC(=O)O)C(=O)O)C(=O)N[C@@H](C)C(=O)N[C@@H](CCC(N)=O)C(=O)NC(C)(C)C(=O)N[C@@H](CC(=O)O)C(=O)N[C@@H](Cc1ccccc1)C(=O)N[C@H](C(=O)N[C@@H](CC(N)=O)C(=O)N[C@@H](Cc1c[nH]c2ccccc12)C(=O)N[C@@H](CC(C)C)C(=O)N[C@@H](CC(C)C)C(=O)N[C@@H](C)C(=O)N[C@@H](CCC(N)=O)C(=O)NCC(=O)N1CCC[C@H]1C(=O)N[C@@H](CO)C(=O)N[C@@H](CO)C(=O)NCC(=O)N[C@@H](C)C(=O)N1CCC[C@H]1C(=O)N1CCC[C@H]1C(=O)N1CCC[C@H]1C(=O)N[C@@H](CO)C(N)=O)C(C)C
B5: Example 11 (peptide)
peptide: Y[dA]EGTFISDYSILLDKK([AEEA-AEEA-γGlu-C20 diacid])AQQDFVNWLLAQGPSSGAPPPS-NH2
modifications: N-terminus assumed
SMILES: CC[C@H](C)[C@H](NC(=O)[C@H](CO)NC(=O)[C@H](Cc1ccc(O)cc1)NC(=O)[C@H](CC(=O)O)NC(=O)[C@H](CO)NC(=O)[C@@H](NC(=O)[C@H](Cc1ccccc1)NC(=O)[C@@H](NC(=O)CNC(=O)[C@H](CCC(=O)O)NC(=O)[C@@H](C)NC(=O)[C@@H](N)Cc1ccc(O)cc1)[C@@H](C)O)[C@@H](C)CC)C(=O)N[C@@H](CC(C)C)C(=O)N[C@@H](CC(C)C)C(=O)N[C@@H](CC(=O)O)C(=O)N[C@@H](CCCCN)C(=O)N[C@@H](CCCCNC(=O)COCCOCCNC(=O)COCCOCCNC(=O)CC[C@H](NC(=O)CCCCCCCCCCCCCCCCCCC(=O)O)C(=O)O)C(=O)N[C@@H](C)C(=O)N[C@@H](CCC(N)=O)C(=O)N[C@@H](CCC(N)=O)C(=O)N[C@@H](CC(=O)O)C(=O)N[C@@H](Cc1ccccc1)C(=O)N[C@H](C(=O)N[C@@H](CC(N)=O)C(=O)N[C@@H](Cc1c[nH]c2ccccc12)C(=O)N[C@@H](CC(C)C)C(=O)N[C@@H](CC(C)C)C(=O)N[C@@H](C)C(=O)N[C@@H](CCC(N)=O)C(=O)NCC(=O)N1CCC[C@H]1C(=O)N[C@@H](CO)C(=O)N[C@@H](CO)C(=O)NCC(=O)N[C@@H](C)C(=O)N1CCC[C@H]1C(=O)N1CCC[C@H]1C(=O)N1CCC[C@H]1C(=O)N[C@@H](CO)C(N)=O)C(C)C
B6: Example 1 (peptide)
peptide: YXEGTFISDYSILLDKKAQXDFVNWLLAQGPSSGAPPPS
modifications: D-Ala2; K17((2-[2-(2-Amino-ethoxy)-ethoxy]-acetyl)2-(γ-Glu)-CO-(CH2)18-CO2H); Aib20; C-terminal amide
B7: Example 9 (peptide)
peptide: B6 peptide with A18H
modifications: D-Ala2; K17((2-[2-(2-Amino-ethoxy)-ethoxy]-acetyl)2-(γ-Glu)-CO-(CH2)18-CO2H); Aib20; C-terminal amide
B8: Example 2 (peptide)
peptide: B6 peptide
modifications: D-Ala2; K17((2-[2-(2-Amino-ethoxy)-ethoxy]-acetyl)2-(γ-Glu)-CO-(CH2)16-CO2H); Aib20; C-terminal amide

target: human glucagon receptor (human, UniProt P47871 26-477); test: cell-based or functional assay
Sequence (P47871 26-477): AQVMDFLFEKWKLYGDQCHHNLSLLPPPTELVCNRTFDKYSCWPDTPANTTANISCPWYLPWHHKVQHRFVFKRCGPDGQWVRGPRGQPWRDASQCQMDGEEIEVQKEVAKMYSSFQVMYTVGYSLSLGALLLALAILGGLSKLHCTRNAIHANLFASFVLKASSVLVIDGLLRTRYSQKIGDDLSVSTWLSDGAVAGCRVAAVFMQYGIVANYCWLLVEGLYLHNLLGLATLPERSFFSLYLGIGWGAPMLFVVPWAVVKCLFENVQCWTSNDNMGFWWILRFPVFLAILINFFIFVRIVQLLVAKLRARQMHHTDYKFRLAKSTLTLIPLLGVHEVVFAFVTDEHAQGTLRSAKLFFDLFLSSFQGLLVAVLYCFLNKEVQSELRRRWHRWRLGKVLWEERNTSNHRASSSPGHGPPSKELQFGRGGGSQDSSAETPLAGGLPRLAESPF

Q: Which “hGcgR cAMP Rel EC50” value does the source give for B1 here?
A: 1250 nM

Q: For YAEGTFISDYSIAMDKIHQQDFVNWLLAQKGKKNDWKHNITQ-NH2 (ligand) [GIP(1-42)-NH2], which “hGcgR cAMP Rel EC50” value is on record?
A: > 5000 nM

Q: How did the “hGcgR cAMP Rel EC50” value turn out when B2 was run?
A: > 5000 nM

Q: B3 was tested. Which “hGcgR cAMP Rel EC50” value did it give?
A: > 5000 nM

Q: For B4, which “hGcgR cAMP Rel EC50” value is on record?
A: 295 nM

Q: With B5 as the binder, how does the “hGcgR cAMP Rel EC50” value read?
A: 445 nM

Q: How did the “hGcgR cAMP Rel EC50” value turn out when B6 was run?
A: 575 nM

Q: With B7 as the binder, how does the “hGcgR cAMP Rel EC50” value read?
A: > 5000 nM

Q: With B8 as the binder, how does the “hGcgR cAMP Rel EC50” value read?
A: 608 nM

target: T1, human glucose-dependent insulinotropic …; test: cell-based or functional assay

Q: Which “hGIPR cAMP Rel EC50” value does the source give for B1 here?
A: 0.0178 nM

Q: For B2, which “hGIPR cAMP Rel EC50” value is on record?
A: 0.611 nM

Q: With B3 as the binder, how does the “hGIPR cAMP Rel EC50” value read?
A: 0.0911 nM

Q: With B4 as the binder, how does the “hGIPR cAMP Rel EC50” value read?
A: 0.0268 nM

Q: Which “hGIPR cAMP Rel EC50” value does the source give for B5 here?
A: 0.0738 nM

Q: How did the “hGIPR cAMP Rel EC50” value turn out when B6 was run?
A: 0.0476 nM

Q: How did the “hGIPR cAMP Rel EC50” value turn out when B7 was run?
A: 0.165 nM

Q: With B8 as the binder, how does the “hGIPR cAMP Rel EC50” value read?
A: 0.0123 nM

target: human GLP-1 receptor (human, UniProt P43220 24-463); test: cell-based or functional assay

Q: How did the “hGLP1R cAMP Rel EC50” value turn out when B1 was run?
A: > 5000 nM

Q: How did the “hGLP1R cAMP Rel EC50” value turn out when B2 was run?
A: > 100 nM

Q: For B3, which “hGLP1R cAMP Rel EC50” value is on record?
A: > 100 nM

Q: Which “hGLP1R cAMP Rel EC50” value does the source give for B4 here?
A: > 5000 nM

Q: How did the “hGLP1R cAMP Rel EC50” value turn out when B5 was run?
A: > 100 nM

Q: Which “hGLP1R cAMP Rel EC50” value does the source give for B6 here?
A: > 5000 nM

Q: How did the “hGLP1R cAMP Rel EC50” value turn out when B7 was run?
A: > 100 nM

Q: Which “hGLP1R cAMP Rel EC50” value does the source give for B8 here?
A: > 5000 nM
